Data set [1] has as its target T1, CD19 on transfected COS-7 cells (human) (UniProt P15391).
T1 sequence: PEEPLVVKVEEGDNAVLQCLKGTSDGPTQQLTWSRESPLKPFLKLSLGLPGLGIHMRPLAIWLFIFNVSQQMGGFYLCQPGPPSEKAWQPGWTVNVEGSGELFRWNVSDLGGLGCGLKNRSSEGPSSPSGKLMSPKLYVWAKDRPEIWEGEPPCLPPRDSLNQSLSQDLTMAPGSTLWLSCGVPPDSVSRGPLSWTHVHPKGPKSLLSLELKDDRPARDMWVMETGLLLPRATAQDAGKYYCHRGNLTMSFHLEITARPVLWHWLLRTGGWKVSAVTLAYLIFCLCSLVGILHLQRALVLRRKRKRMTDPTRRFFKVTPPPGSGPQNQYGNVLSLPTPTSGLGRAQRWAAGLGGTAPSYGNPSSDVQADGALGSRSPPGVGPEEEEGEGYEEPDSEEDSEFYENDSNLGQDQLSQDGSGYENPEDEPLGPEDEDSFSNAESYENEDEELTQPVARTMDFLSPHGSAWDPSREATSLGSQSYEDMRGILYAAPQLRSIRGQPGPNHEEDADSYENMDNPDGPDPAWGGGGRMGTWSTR
The experiment in a line: cell binding RT-qPCR. As to conditions: 200 nM aptamer, poly(I); 2'-fluoro pyrimidines; BLI: running buffer not stated (tips prehydrated in PBS), temperature not stated; cell binding: serum-free medium, 37 C, 30 min, with poly(I) 0.1 ug/uL (qPCR) ….

Data set [2] has as its target T2, endogenous CD19 of MEC-1 cells (human (MEC-1 B-CLL cell line)) (UniProt P15391).
T2 sequence: T1 sequence
Nature of the data set: flow cytometry. To be noted: 2'-fluoro pyrimidines; BLI: running buffer not stated (tips prehydrated in PBS), temperature not stated; cell binding: serum-free medium, 37 C, 30 min, with poly(I) 0.1 ug/uL (qPCR) …. Background: In flow cytometry, cells or beads pass a laser one at a time.

The target in data set [3] is T3, rhCD19 (recombinant human CD19, extracellular domain) (human, UniProt P15391 20-291). The experiment in a line: BLI; 2.5-100 nM aptamer; BLI: running buffer not stated (tips prehydrated in PBS), temperature not stated; cell binding: serum-free medium, 37 C, 30 min, with poly(I) 0.1 ug/uL (qPCR) or tRNA 0.4 ug/uL plus 100 nM Ctrl Apt (FACS); pull-down lysis: 10 mM Tris-HCl pH 7.5, 200 mM NaCl, 5 mM EDTA, 0.1% Triton X-100. As to conditions: protein: recombinant.

Data set [4] deals with rhBCMA (B Cell Maturation Antigen) (human, UniProt Q02223 1-54). Nature of the data set: BLI; up to 1 uM aptamer; BLI: running buffer not stated (tips prehydrated in PBS), temperature not stated; cell binding: serum-free medium, 37 C, 30 min, with poly(I) 0.1 ug/uL (qPCR) or tRNA 0.4 ug/uL plus 100 nM Ctrl Apt (FACS); pull-down lysis: 10 mM Tris-HCl pH 7.5, 200 mM NaCl, 5 mM EDTA, 0.1% Triton X-100. To be noted: protein: recombinant.
Chain of rhBCMA (B Cell Maturation Antigen) (Q02223 1-54): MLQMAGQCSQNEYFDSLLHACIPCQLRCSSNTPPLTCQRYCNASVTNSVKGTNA

Data set [5] concerns the target T3, rhCD19 (recombinant human CD19, …). Described as above. To be noted: protein: recombinant.

As a reminder, the Kd is the constant that tells how readily two partners part at equilibrium.

Regarding UGAGCCCUGUUCGACAGGAGGCUCA [B85.T2], the binding signal (fold over parental COS-7) in data set [1] was 22.
Same read-out and setting: as for CCUGUUGUUCGACAGGAGGCUCACAACAGG [B88.T2], the figure is 7.
In data set [2], “UGAGCCCUGUUCGACAGGAGGCUCA [B85.T2 (FAM)]” came in with a binding signal (fold over Jurkat) of 2.

B1: B85.T2 (structured_RNA)
RNA: UGAGCCCUGUUCGACAGGAGGCUCA
modifications: 2'-fluoro pyrimidines
In the case of B1, the Kd in data set [3] was 49.9 ± 13 nM. For the same molecule, in data set [4], the binding result is reported as “no binding”.

B2: Ctrl Apt (structured_RNA)
RNA: UUCGUACCGGGUAGGUUGGCUUGCACAUAGAACGUGUCA
modifications: 2'-fluoro pyrimidines
In the case of B2, the binding result in data set [5] is on record as “no binding”.

The values are drawn from PMC8533794, “Selection of a Nuclease-Resistant RNA Aptamer Targeting CD19”.
